The values below come from publication PMC5461112, “Structure analyses reveal a regulated oligomerization mechanism of the PlexinD1/GIPC/myosin VI complex” (eLife, 2017).

The target of series [1] is mouse GIPC1 GH1-PDZ-GH2 (version not told; pull-down and gel filtration) (mouse) (UniProt Q9Z0G0). As to the kind of experiment: SEC; gel filtration chromatography of the GH1-PDZ-GH2 proteins during purification. (In general: In gel filtration, larger molecules generally elute earlier.)
Series [2] addresses mouse GIPC3 GH1-PDZ-GH2 (residues 20-307) (mouse). The description is as above.
In series [3] the target is T1, helical cargo-binding domain (HCBD) of mouse myosin VI (residues 1052-1096), GST removed.
T1 chain: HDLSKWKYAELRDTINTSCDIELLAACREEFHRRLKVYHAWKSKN
As to the kind of experiment: sedimentation velocity analytical ultracentrifugation (AUC). As to conditions: chain shown with the change, 150 μM, read off a plot.

Series [4] deals with the molecule itself. As to the kind of experiment: SEC; gel filtration chromatography of the GH1-PDZ-GH2 proteins during purification.
The target of series [5] is T2, mouse PlexinD1 cytoplasmic region with the JM-segment (residues 1297-1925) (mouse, UniProt Q3UH93 1297-1925).
T2 construct: mouse PlexinD1, cytoplasmic region with the juxtamembrane segment, residues 1297-1925; also called PlexinD1_(cyto)(with JM); PlxD1; not shown: His6, N-terminal, cleaved
T2 sequence (looked up): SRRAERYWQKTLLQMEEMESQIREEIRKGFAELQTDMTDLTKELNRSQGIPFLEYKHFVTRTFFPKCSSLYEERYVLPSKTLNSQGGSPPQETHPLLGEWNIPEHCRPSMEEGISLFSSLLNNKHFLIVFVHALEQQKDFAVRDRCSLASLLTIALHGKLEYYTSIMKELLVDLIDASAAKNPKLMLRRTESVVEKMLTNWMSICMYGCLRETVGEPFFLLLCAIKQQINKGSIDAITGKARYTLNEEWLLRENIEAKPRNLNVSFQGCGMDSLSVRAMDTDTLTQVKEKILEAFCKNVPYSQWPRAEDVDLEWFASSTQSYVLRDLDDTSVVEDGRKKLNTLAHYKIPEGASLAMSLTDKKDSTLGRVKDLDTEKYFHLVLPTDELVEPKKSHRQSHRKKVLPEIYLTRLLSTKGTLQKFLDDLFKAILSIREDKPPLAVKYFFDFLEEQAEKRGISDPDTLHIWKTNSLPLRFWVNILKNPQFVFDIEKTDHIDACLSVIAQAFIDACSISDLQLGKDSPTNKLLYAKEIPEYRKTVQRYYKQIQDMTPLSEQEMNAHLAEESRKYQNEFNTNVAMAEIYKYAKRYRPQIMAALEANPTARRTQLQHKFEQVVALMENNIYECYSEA
As to the kind of experiment: pull-down; three proteins mixed: GST-HCBD, a GIPC and PlexinD1cyto (with JM), each 1 μM; glutathione beads; 10 mM Tris pH 8.0, 150 mM NaCl, 1 mM DTT; room temperature; Coomassie-stained SDS-PAGE. As to conditions: both partners purified.

Series [6] concerns the molecule itself. As to the kind of experiment: crystal structure; PlexinD1cyto and GIPC1 (residues 52-333) mixed equimolar, 5 mg/ml; 0.1 M Bis-Tris pH 5.5, 2 M (NH4)2SO4; 20°C.
Series [7] deals with helical cargo-binding domain (HCBD) of mouse myosin VI (residues 1052-1096), GST removed (mouse). As to the kind of experiment: AUC; sedimentation velocity of GH2 and HCBD mixed 1:1 at various concentrations (mutants at 150 μM); multi-signal analysis; 10 mM Tris pH 8.0, 150 mM NaCl, 1 mM TCEP; 4°C, 50,000 rpm.
Series [8] concerns the molecule itself. As to the kind of experiment: crystal structure; apo-GIPC1 (residues 52-327), 5 mg/ml; 0.2 M Li2SO4, 0.1 M HEPES pH 7.5, 25% (w/v) PEG3350; 20°C.
The mark [9] stands for this setting: 500 mM salt in the buffer, parent: est. 4.3.

Values joined by “and” are separate entries in the source; they are usually repeats but may differ in a detail not shown here. Identical values can stand only once.

As usually defined, the stoichiometry N is a count of units in the complex or per binding partner. For “mouse GIPC1 GH1-PDZ-GH2 (version not told; pull-down and gel filtration) (from UniProt Q9Z0G0 52-333) (domain or fragment)”, the stoichiometry N in series [1] came out at 2.
With “mouse GIPC3 GH1-PDZ-GH2 (residues 20-307) (domain or fragment)”, in series [2], the stoichiometry N came out at 2.

B1: mouse GIPC1 linker-GH2 (residues 217-333), Q9Z0G0 Y275A; M276E; I278Q; G323Q (protein)
chain: AFDMISQRSAGGHPGSGPQLGTGRGTLRLRSRGPATVEDLPSAFEEKAIEKVDDLLESAEGQRDTELAATMVELGKDKRNPDELAEALDERLGDFAFPDEFVFDVWQAIGDAKVGRY
Regarding B1, in series [3] (setting [9]), the other: s20,ww-value of the complex amounted to 1.4 S.

B2: mouse GIPC1 linker-GH2 (residues 217-333), Q9Z0G0 Y275A; M276E; I278Q (protein)
chain: AFDMISQRSAGGHPGSGPQLGTGRGTLRLRSRGPATVEDLPSAFEEKAIEKVDDLLESAEGQRDTELAATMVELGKDKRNPDELAEALDERLGDFAFPDEFVFDVWGAIGDAKVGRY
With B2, the other: s20,ww-value of the complex in series [3] (setting [9]) amounted to 1.4 S.

B3: mouse GIPC1 linker-GH2 (residues 217-333), Q9Z0G0 Y275A; M276E; G323Q (protein)
chain: AFDMISQRSAGGHPGSGPQLGTGRGTLRLRSRGPATVEDLPSAFEEKAIEKVDDLLESAEGIRDTELAATMVELGKDKRNPDELAEALDERLGDFAFPDEFVFDVWQAIGDAKVGRY
On to B3, for which the other: s20,ww-value of the complex in series [3] (setting [9]) stood at 1.4 S.

B4: mouse GIPC1 linker-GH2 (residues 217-333), Q9Z0G0 Y275A; M276E (protein)
chain: AFDMISQRSAGGHPGSGPQLGTGRGTLRLRSRGPATVEDLPSAFEEKAIEKVDDLLESAEGIRDTELAATMVELGKDKRNPDELAEALDERLGDFAFPDEFVFDVWGAIGDAKVGRY
For B4, the other: s20,ww-value of the complex in series [3] (setting [9]) turned out to be 1.4 S.

B5: mouse GIPC2 GH1-PDZ-GH2 (residues 40-314) (domain or fragment, UniProt Q9Z2H7 40-314, looked up)
chain: RKLVFHAQLAHGSATGRVEDFSSISELYAKIAGVFEIAPSEILFCTLNTPKIDMGKLLGGQLGLEDFIFAHVKGTKKEVNVYKSEDSLGLTITDNGVGYAFIKRIKDGSTIDSVKTICVGDHIECINGENIVGWRHFEVAKKLKELKKEELFTLQLIEPKKAFEIGPRSKAGKTSTEKIGTSRGTLRLRSKGPATVEELPSEAKAKAIGKVDDLLELYMGIRDIDLATTMFEAGKDKSNPDEFAVALDETLGDFAFPDEFLFDVWGAISDMKQGR
notes: mouse GIPC2, GH1-PDZ-GH2 domains, residues 40-314; not shown: His6, N-terminal, cleaved
For the molecule B5, the “stoichiometry N” value in series [4] was found to be 2. The binding result in series [5] is recorded as “binds”.

B6: mouse GIPC1 GH1-PDZ-GH2 version 1 (residues 52-333) (domain or fragment, UniProt Q9Z0G0 52-333, looked up)
chain: AALRPRLVFHTQLAHGSPTGRIEGFTNVKELYGKIAEAFRLPAAEVMFCTLNTHKVDMDKLLGGQIGLEDFIFAHVKGQRKEVEVFKSEEALGLTITDNGAGYAFIKRIKEGSVIDHIQLISVGDMIEAINGQSLLGCRHYEVARLLKELPRGRTFTLKLTEPRKAFDMISQRSAGGHPGSGPQLGTGRGTLRLRSRGPATVEDLPSAFEEKAIEKVDDLLESYMGIRDTELAATMVELGKDKRNPDELAEALDERLGDFAFPDEFVFDVWGAIGDAKVGRY
notes: mouse GIPC1, GH1-PDZ-GH2 domains, version 1, residues 52-333; the PDZ-GH2 linker and GH2 domain are invisible in the map; not shown: His6, N-terminal, cleaved
As for B6, in series [6], the binding result is on record as “binds”.

B7: mouse GIPC1 GH2 domain (residues 258-333), Q9Z0G0 M276E (protein)
chain: SAFEEKAIEKVDDLLESYEGIRDTELAATMVELGKDKRNPDELAEALDERLGDFAFPDEFVFDVWGAIGDAKVGRY
For B7, in series [3] (parent: est. 3.8), the other: s20,ww-value of the complex was 3.3 S.

B8: mouse GIPC1 GH2 domain (residues 258-333), Q9Z0G0 Y275A; M276E (protein)
chain: SAFEEKAIEKVDDLLESAEGIRDTELAATMVELGKDKRNPDELAEALDERLGDFAFPDEFVFDVWGAIGDAKVGRY
Regarding B8, the other: s20,ww-value of the complex in series [3] (parent: est. 3.8) worked out at 1.3 S.

B9: mouse GIPC1 GH2 domain (residues 258-333), Q9Z0G0 G323Q (protein)
chain: SAFEEKAIEKVDDLLESYMGIRDTELAATMVELGKDKRNPDELAEALDERLGDFAFPDEFVFDVWQAIGDAKVGRY
Consider B9, for which, in series [3] (parent: est. 3.8), the other: s20,ww-value of the complex amounted to 1.8 S.

B10: mouse GIPC1 GH2 domain (residues 258-333), Q9Z0G0 Y275A; M276E; I278Q (protein)
chain: SAFEEKAIEKVDDLLESAEGQRDTELAATMVELGKDKRNPDELAEALDERLGDFAFPDEFVFDVWGAIGDAKVGRY
Take B10: the other: s20,ww-value of the complex in series [3] (parent: est. 3.8) stood at 1.3 S.

B11: mouse GIPC1 GH2 domain (residues 258-333), Q9Z0G0 Y275A; M276E; G323Q (protein)
chain: SAFEEKAIEKVDDLLESAEGIRDTELAATMVELGKDKRNPDELAEALDERLGDFAFPDEFVFDVWQAIGDAKVGRY
Turning to B11, in series [3] (parent: est. 3.8), the other: s20,ww-value of the complex turned out to be 1.3 S.

B12: mouse GIPC1 GH2 domain (residues 258-333), Q9Z0G0 Y275A; M276E; I278Q; G323Q (protein)
chain: SAFEEKAIEKVDDLLESAEGQRDTELAATMVELGKDKRNPDELAEALDERLGDFAFPDEFVFDVWQAIGDAKVGRY
For B12, the other: s20,ww-value of the complex in series [3] (parent: est. 3.8) worked out at 1.3 S.

B13: mouse GIPC1 GH2 domain (residues 258-333), Q9Z0G0 Y275A (protein)
chain: SAFEEKAIEKVDDLLESAMGIRDTELAATMVELGKDKRNPDELAEALDERLGDFAFPDEFVFDVWGAIGDAKVGRY
As to B13, the other: s20,ww-value of the complex in series [3] (parent: est. 3.8) was determined as 3 S.

B14: mouse GIPC1 GH2 domain (residues 258-333), Q9Z0G0 I278Q; G323Q (protein)
chain: SAFEEKAIEKVDDLLESYMGQRDTELAATMVELGKDKRNPDELAEALDERLGDFAFPDEFVFDVWQAIGDAKVGRY
On to B14, for which, in series [3] (parent: est. 3.8), the other: s20,ww-value of the complex was determined as 1.8 S.

B15: mouse GIPC1 GH2 domain (residues 258-333), Q9Z0G0 M276E; F319S (protein)
chain: SAFEEKAIEKVDDLLESYEGIRDTELAATMVELGKDKRNPDELAEALDERLGDFAFPDEFVSDVWGAIGDAKVGRY
Turning to B15, the other: s20,ww-value of the complex in series [3] (parent: est. 3.8) came to 1.6 S.

B16: mouse GIPC1 GH2 domain (residues 258-333), Q9Z0G0 Y275A; G323Q (protein)
chain: SAFEEKAIEKVDDLLESAMGIRDTELAATMVELGKDKRNPDELAEALDERLGDFAFPDEFVFDVWQAIGDAKVGRY
As to B16, the other: s20,ww-value of the complex in series [3] (parent: est. 3.8) is 1.6 S.

B17: mouse GIPC1 GH2 domain (residues 258-333), Q9Z0G0 I278Q (protein)
chain: SAFEEKAIEKVDDLLESYMGQRDTELAATMVELGKDKRNPDELAEALDERLGDFAFPDEFVFDVWGAIGDAKVGRY
With B17, the other: s20,ww-value of the complex in series [3] (parent: est. 3.8) turned out to be 2.1 S.

B18: mouse GIPC1 GH2 domain (residues 258-333), Q9Z0G0 F319S (protein)
chain: SAFEEKAIEKVDDLLESYMGIRDTELAATMVELGKDKRNPDELAEALDERLGDFAFPDEFVSDVWGAIGDAKVGRY
On to B18, for which the other: s20,ww-value of the complex in series [3] (parent: est. 3.8) was found to be 2.4 S.

B19: mouse GIPC1 GH2 domain (residues 258-333) (domain or fragment)
chain: SAFEEKAIEKVDDLLESYMGIRDTELAATMVELGKDKRNPDELAEALDERLGDFAFPDEFVFDVWGAIGDAKVGRY
For the molecule B19, the stoichiometry N in series [7] was 1 and 1.1.

B20: mouse GIPC1 GH2 domain (residues 258-333), Q9Z0G0 M276E; G323Q (protein)
chain: SAFEEKAIEKVDDLLESYEGIRDTELAATMVELGKDKRNPDELAEALDERLGDFAFPDEFVFDVWQAIGDAKVGRY
Turning to B20, the other: s20,ww-value of the complex in series [3] (parent: est. 3.8) amounted to 1.5 S.

B21: mouse GIPC1 GH1-PDZ-GH2 version 2 (residues 52-327) (domain or fragment, UniProt Q9Z0G0 52-327, looked up)
chain: AALRPRLVFHTQLAHGSPTGRIEGFTNVKELYGKIAEAFRLPAAEVMFCTLNTHKVDMDKLLGGQIGLEDFIFAHVKGQRKEVEVFKSEEALGLTITDNGAGYAFIKRIKEGSVIDHIQLISVGDMIEAINGQSLLGCRHYEVARLLKELPRGRTFTLKLTEPRKAFDMISQRSAGGHPGSGPQLGTGRGTLRLRSRGPATVEDLPSAFEEKAIEKVDDLLESYMGIRDTELAATMVELGKDKRNPDELAEALDERLGDFAFPDEFVFDVWGAIGD
notes: mouse GIPC1, GH1-PDZ-GH2 domains, version 2, residues 52-327; the dimer peak of gel filtration was collected; also called apo-GIPC1; not shown: His6, N-terminal, cleaved
For the molecule B21, the binding result in series [8] is reported as “binds”.
